What is called Kd is the free concentration of one partner at which half of the binding sites on the other are occupied at equilibrium, for simple one-to-one binding. A word on the koff: it is the rate constant with which the complex falls apart. Higher therefore signals a short-lived complex. The term kon denotes the rate constant with which the complex forms.

Changes are numbered by the printed parent chain.

First the molecules themselves.
T1: hu-CD74 antigen (R&D SYSTEMS catalog #3590-CD-050) (human, UniProt P04233-2 73-232, limits assumed)
T1 construct: Bought antigen; also called rhCD74; human CD74
T1 sequence (looked up): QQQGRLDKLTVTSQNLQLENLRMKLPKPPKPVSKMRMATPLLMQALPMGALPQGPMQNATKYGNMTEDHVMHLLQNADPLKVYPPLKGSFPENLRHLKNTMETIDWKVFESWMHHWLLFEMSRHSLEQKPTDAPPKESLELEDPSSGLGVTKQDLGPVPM

B1: 1251-G02 heavy chain paired with VL SEQ ID NO: 272 (antibody, V domains shown)
VH: QVQLVESGGGVVQPGRSLRLSCAASGFTFSSYGMHWVRQAPDKGLEWVAVIWHDGSKDYYADSVKGRFTISRDNSKNTLYLQMNSLRAEDTAVYYCARGGQLDHGAIYGLDVWGQGTTVTVSS
VL: DIQMTQSPSSLSASVGDRVTITCRASQGISSWLAWYQQKPEKAPKSLIYAASSLQSGVPSRFSGSGSGTDFTLTISSLQPEDFATYYCQQYNSYPLTFGGGTKVEIK
B2: 1275-C10 light chain paired with HC 1251-A06 (SEQ ID NO: 310) (antibody)
heavy: not shown
VL: B1 VL with I29V, A50S, S52R, S53Y, S93L
B3: 1251-A02 heavy chain paired with VL SEQ ID NO: 272 (antibody, V domains shown)
VH: QVQLVESGGGVVQPGRSLRLSCAASGFAFSDHGMHWVRQAPDKGLEWVAVIWYDGSHKIYADSVKGRFTISRDNSKNTLYLQMNSLRAEDTAVYYCARGGSLAGGAVYGTDVWGQGTTVTVSS
VL: B1 VL
notes: Selected from a Fab library; VH3-33 / Vk1-12
B4: 1251-F06 heavy chain paired with VL SEQ ID NO: 272 (antibody, V domains shown)
VH: B1 VH with Y32F, H53Y, K57N, D58E, Q101S, D103V, H104T, G105R, A106G, I107V
VL: B1 VL
B5: 1251-E06 heavy chain paired with VL SEQ ID NO: 272 (antibody, V domains shown)
VH: QVQLVESGGGVVQPGRSLRLSCAASGFTFDSYGMHWVRQAPDKGLEWVAVIWYDGSNKVYADSVKGRFTISRDNSKNTLYLQMNSLRAEDTAVYYCARGGMVGQGAMFGLDVWGQGTTVTVSS
VL: B1 VL
B6: 1251-A03 heavy chain paired with VL SEQ ID NO: 272 (antibody, V domains shown)
VH: B3 VH
VL: B1 VL
B7: 1251-C03 heavy chain paired with VL SEQ ID NO: 272 (antibody, V domains shown)
VH: QVQLVESGGGVVQPGRSLRLSCAASGFNFSSYGMHWVRQAPDKGLEWVAVIWYDGSIKNYADSVKGRFTISRDNSKNTLYLQMNSLRAEDTAVYYCARGGALMRGEFSGHDVWGQGTTVTVSS
VL: B1 VL
B8: 1275-D10 light chain paired with HC 1251-A06 (SEQ ID NO: 310) (antibody, human IgG1, V domains shown)
VH: B1 VH with T28D, H53D, K57D, D58R, Q101T, L102R, D103V, H104L, Y108H, L110T
VL: B1 VL with I29V, S30F, A50N, S52T, S53Q, N92Y, S93Y
B9: 1275-D01 light chain paired with HC 1251-A06 (SEQ ID NO: 310) (antibody, human IgG1, V domains shown)
VH: B1 VH with T28D, H53D, K57D, D58R, Q101T, L102R, D103V, H104L, Y108H, L110T
VL: B1 VL with S30G, S31R, A50G, A51R, S93I
B10: 1337-A04 light chain paired with VH 1251-A06 (SEQ ID NO: 236) (Fab, V domains shown)
VH: B1 VH with T28D, H53D, K57D, D58R, Q101T, L102R, D103V, H104L, Y108H, L110T
VL: B1 VL with G28D, S30G, S31R, L33V, A50G, S93T
notes: 'in Fab format'

The target of the first assay is T1, hu-CD74 antigen (R&D SYSTEMS catalog …). The assay is described as follows: SPR (Biacore T200), captured on anti-human Fc, rhCD74 analyte. The protocol: Kinetic binding experiments were performed at 25° C. using 1×HBS-EP+buffer. Kinetic data was collected by injecting test and control antibodies at concentrations of 10, 5 and 2.5 μg/mL for 12 s at a flow rate of 10 μl/min on flow cells 2, 3 and 4 respectively, followed by a buffer wash for 30 s at the same flow rate. Kinetic characterization of antibody samples was carried out with 8 concentrations of a 1:2 dilution series of rhCD74 antigen (R&D Systems) and 2 injections of 0 nM antigen (buffer only). […] Between each ligand capture and analyte binding cycle, regeneration was carried out using 2 injections of 3M MgCl₂ for 30 seconds at 30 μL/min, followed by a 30 second buffer wash step.
B1 gave a dissociation constant (Kd) of 0.651 nM, a koff of 0.00084 s⁻¹ and a kon of 1.29e+06 M⁻¹ s⁻¹.

Consider B2, for which the Kd was 0.26 nM, the koff stood at 0.000234 s⁻¹ and the kon was 901000 M⁻¹ s⁻¹.

In the case of B3, the dissociation constant Kd came out at 0.2 nM, the koff was 0.000302 s⁻¹ and the kon stood at 1.51e+06 M⁻¹ s⁻¹.

Consider B4, for which the Kd was 0.363 nM, the koff amounted to 0.000779 s⁻¹ and the association rate constant (kon) was 2.15e+06 M⁻¹ s⁻¹.

In the case of B5, binding was put at a Kd of 0.376 nM, the koff was 0.000426 s⁻¹ and the kon worked out at 1.13e+06 M⁻¹ s⁻¹.

As to B6, the Kd came to 0.184 nM, the koff worked out at 0.000305 s⁻¹ and the on-rate constant (kon) was determined as 1.65e+06 M⁻¹ s⁻¹.

Regarding B7, binding was put at a Kd of 1.63 nM, the koff was 0.00118 s⁻¹ and the on-rate (kon) was determined as 722000 M⁻¹ s⁻¹.

Turning to B8, binding was characterised by a dissociation constant (Kd) of 0.559 nM, the koff is 0.000235 s⁻¹ and the on-rate constant (kon) came to 420000 M⁻¹ s⁻¹.

B9 returned a Kd of 0.721 nM, a koff of 0.000475 s⁻¹ and an on-rate constant (kon) of 659000 M⁻¹ s⁻¹.

Another assay shares this target. Described as above. This is another data set of the same source.
Consider B10, for which binding was characterised by a dissociation constant (Kd) of 0.158 nM, the koff stood at 0.000123 s⁻¹ and the kon was found to be 775000 M⁻¹ s⁻¹.

(Values after US20170253656A1 (SUTRO BIOPHARMA, published 2017).)
